In article PMC6006435 one finds stoichiometry N data, which are given here for 1 substance.

In general, stoichiometry N refers to a count of units in the complex or per binding partner.

The target of the assay is Ageratum yellow vein virus capsid protein (CP), in the geminate virus particle (Ageratum yellow vein virus). Nature of the assay: cryo-EM structure; single-particle cryo-EM of purified AYVV geminate particles, D5 symmetry, 3.3 Å; particles in 100 mM sodium phosphate pH 7.0; capsid holds the genomic ssDNA.

Consider “Ageratum yellow vein virus capsid protein (CP), in the geminate virus particle (natural protein)”, for which the stoichiometry N was 110.
